Data as given in the supplement of paper PMC10567573.

B1: CLCN6 (parent)
chain: TGLVGLFVDFFVRLFTQLKFGVVQ

Variants of: B1
Test: protein stability index of a GFP-peptide fusion (GPS, HEK-293T) (PSI 1-6); higher = more stable
Conditions: c terminus: a fixed tail appended
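Further: lentivirally expressed fusions sorted by FACS into six bins by GFP to DsRed ratio, PSI derived from sequencing read proportions per bin multiplied by bin number.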

Variant | protein stability index
TGLVGLFVLFFVRLFTQLKFGVVQ | 1.86
TGLVGLFVMFFVRLFTQLKFGVVQ | 1.89
TGLVYLFVDFFVRLFTQLKFGVVQ | 2.08
TGLVNLFVDFFVRLFTQLKFGVVQ | 2
TGLVKLFVDFFVRLFTQLKFGVVQ | 3.25
TGLVELFVDFFVRLFTQLKFGVVQ | 1.78
TGLVQLFVDFFVRLFTQLKFGVVQ | 2.21
TGLVHLFVDFFVRLFTQLKFGVVQ | 2.16
TGLVPLFVDFFVRLFTQLKFGVVQ | 2.71
TGLVTLFVDFFVRLFTQLKFGVVQ | 1.34
TGLVCLFVDFFVRLFTQLKFGVVQ | 2.42
TGLVWLFVDFFVRLFTQLKFGVVQ | 1.86
TGLVFLFVDFFVRLFTQLKFGVVQ | 1.72
TGLVRLFVDFFVRLFTQLKFGVVQ | 2.69
TGLVDLFVDFFVRLFTQLKFGVVQ | 2.47
TGLVMLFVDFFVRLFTQLKFGVVQ | 2.48
TGLVALFVDFFVRLFTQLKFGVVQ | 2.19
TGLVSLFVDFFVRLFTQLKFGVVQ | 2.21
TGPVGLFVDFFVRLFTQLKFGVVQ | 2.45
TGRVGLFVDFFVRLFTQLKFGVVQ | 2.52
TGQVGLFVDFFVRLFTQLKFGVVQ | 1.49
TGTVGLFVDFFVRLFTQLKFGVVQ | 1.65
TGNVGLFVDFFVRLFTQLKFGVVQ | 2.11
TGWVGLFVDFFVRLFTQLKFGVVQ | 3.37

Variant | protein stability index
TGCVGLFVDFFVRLFTQLKFGVVQ | 2.42
TGGVGLFVDFFVRLFTQLKFGVVQ | 1.4
TGVVGLFVDFFVRLFTQLKFGVVQ | 2.42
TGMVGLFVDFFVRLFTQLKFGVVQ | 2.73
TGKVGLFVDFFVRLFTQLKFGVVQ | 3.14
TGSVGLFVDFFVRLFTQLKFGVVQ | 2.05
TGAVGLFVDFFVRLFTQLKFGVVQ | 2.15
TGHVGLFVDFFVRLFTQLKFGVVQ | 2.25
TGFVGLFVDFFVRLFTQLKFGVVQ | 2.71
TGIVGLFVDFFVRLFTQLKFGVVQ | 2.36
TGYVGLFVDFFVRLFTQLKFGVVQ | 2.63
TGDVGLFVDFFVRLFTQLKFGVVQ | 2.07
TGEVGLFVDFFVRLFTQLKFGVVQ | 3.71
TGLVGYFVDFFVRLFTQLKFGVVQ | 3.19
TGLVGKFVDFFVRLFTQLKFGVVQ | 2.44
TGLVGIFVDFFVRLFTQLKFGVVQ | 2.83
TGLVGPFVDFFVRLFTQLKFGVVQ | 2.65
TGLVGEFVDFFVRLFTQLKFGVVQ | 2.25
TGLVGAFVDFFVRLFTQLKFGVVQ | 2.77
TGLVGMFVDFFVRLFTQLKFGVVQ | 2.93
TGLVGFFVDFFVRLFTQLKFGVVQ | 2.4
TGLVGSFVDFFVRLFTQLKFGVVQ | 2.99
TGLVGWFVDFFVRLFTQLKFGVVQ | 3.31
TGLVGDFVDFFVRLFTQLKFGVVQ | 2.33

Variant | protein stability index
TGLVGHFVDFFVRLFTQLKFGVVQ | 3.06
TGLVGNFVDFFVRLFTQLKFGVVQ | 2.76
TGLVGCFVDFFVRLFTQLKFGVVQ | 2.69
TGLVGVFVDFFVRLFTQLKFGVVQ | 2.15
TGLVGTFVDFFVRLFTQLKFGVVQ | 2.71
TGLVGRFVDFFVRLFTQLKFGVVQ | 3.73
TGLVGGFVDFFVRLFTQLKFGVVQ | 3.36
TGLVGQFVDFFVRLFTQLKFGVVQ | 3.53
CGLVGLFVDFFVRLFTQLKFGVVQ | 2.14
GGLVGLFVDFFVRLFTQLKFGVVQ | 2.12
HGLVGLFVDFFVRLFTQLKFGVVQ | 2.01
LGLVGLFVDFFVRLFTQLKFGVVQ | 1.68
NGLVGLFVDFFVRLFTQLKFGVVQ | 1.8
WGLVGLFVDFFVRLFTQLKFGVVQ | 1.73
YGLVGLFVDFFVRLFTQLKFGVVQ | 2.82
RGLVGLFVDFFVRLFTQLKFGVVQ | 3.29
KGLVGLFVDFFVRLFTQLKFGVVQ | 2.83
AGLVGLFVDFFVRLFTQLKFGVVQ | 1.84
FGLVGLFVDFFVRLFTQLKFGVVQ | 2.1
QGLVGLFVDFFVRLFTQLKFGVVQ | 2.17
EGLVGLFVDFFVRLFTQLKFGVVQ | 1.92
DGLVGLFVDFFVRLFTQLKFGVVQ | 2.39
IGLVGLFVDFFVRLFTQLKFGVVQ | 1.56
SGLVGLFVDFFVRLFTQLKFGVVQ | 2.6

Variant | protein stability index
PGLVGLFVDFFVRLFTQLKFGVVQ | 2.59
MGLVGLFVDFFVRLFTQLKFGVVQ | 1.99
VGLVGLFVDFFVRLFTQLKFGVVQ | 1.7
TGLVGLFRDFFVRLFTQLKFGVVQ | 2.25
TGLVGLFGDFFVRLFTQLKFGVVQ | 2.9
TGLVGLFKDFFVRLFTQLKFGVVQ | 2.04
TGLVGLFYDFFVRLFTQLKFGVVQ | 2.79
TGLVGLFSDFFVRLFTQLKFGVVQ | 1.76
TGLVGLFNDFFVRLFTQLKFGVVQ | 2.27
TGLVGLFADFFVRLFTQLKFGVVQ | 1.6
TGLVGLFPDFFVRLFTQLKFGVVQ | 1.7
TGLVGLFQDFFVRLFTQLKFGVVQ | 2.05
TGLVGLFHDFFVRLFTQLKFGVVQ | 2.77
TGLVGLFTDFFVRLFTQLKFGVVQ | 1.9
TGLVGLFIDFFVRLFTQLKFGVVQ | 1.74
TGLVGLFMDFFVRLFTQLKFGVVQ | 2.08
TGLVGLFFDFFVRLFTQLKFGVVQ | 2.04
TGLVGLFWDFFVRLFTQLKFGVVQ | 3.01
TGLVGLFLDFFVRLFTQLKFGVVQ | 3.04
TGLVGLFEDFFVRLFTQLKFGVVQ | 1.38
TGLVGLFCDFFVRLFTQLKFGVVQ | 2.25
TGLVGLFDDFFVRLFTQLKFGVVQ | 2.45
